Test results taken from US20160145343A1 (UNIVERSITY OF PITTSBURGH OF THE COMMONWEALTH SYSTEM OF …, published 2016).
Positions count from the first letter of the chain named. Where no end group is shown, it is not given here. The star is where a group is joined. αGalNAc = CC(=O)N[C@@H]1[C@@H](O)[C@@H](O)[C@@H](CO)O[C@@H]1*; Galβ1‑3GalNAc = TF-antigen

T1: Synthetic peptide HGVTSAPDTRPAPGSTAPP
T1 construct: Unglycosylated; also called 346; MUC1 repeat
T1 peptide: HGVTSAPDTRPAPGSTAPP

T2: Synthetic peptide (GVTSAPDTRPAPGSTAPPAH)2
T2 peptide: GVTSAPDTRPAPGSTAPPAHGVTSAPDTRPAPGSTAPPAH

T3: SEQ ID NO: 346 glycopeptide with TF-antigen at Thr4
T3 construct: also called T4^TF
T3 peptide: HGVT(Galβ1‑3GalNAc)SAPDTRPAPGSTAPP

T4: SEQ ID NO: 346 glycopeptide with TF-antigen at Thr4 and Thr9
T4 construct: also called T4^TF/T9^TF
T4 peptide: HGVT(Galβ1‑3GalNAc)SAPDT(Galβ1‑3GalNAc)RPAPGSTAPP

T5: SEQ ID NO: 346 glycopeptide with TF-antigen at Thr9
T5 construct: also called T9^TF
T5 peptide: HGVTSAPDT(Galβ1‑3GalNAc)RPAPGSTAPP

T6: SEQ ID NO: 346 glycopeptide with Tn-antigen at Thr4, Thr9 and Thr16
T6 construct: also called T4^Tn/T9^Tn/T16^Tn
T6 peptide: HGVT(αGalNAc)SAPDT(αGalNAc)RPAPGST(αGalNAc)APP

T7: SEQ ID NO: 346 glycopeptide with TF-antigen at Thr16
T7 construct: also called T16^TF
T7 peptide: HGVTSAPDTRPAPGST(Galβ1‑3GalNAc)APP

T8: SEQ ID NO: 346 glycopeptide with TF-antigen at Ser5 (not fully specified (residue 5))
T8 construct: also called S5^TF
T8 peptide: HGVTSAPDTRPAPGSTAPP

B1: M20 (antibody, human IgG1, kappa, V domains shown)
VH: EVQLVESGGGLVQPGGSLRLSCAASGFTFSSYWMHWVRQAPGKGLVWVSHINSDGSSTSYADSVKGRFTISRDNAKNTLYLQMNSLRAEDTAVYYCARELADWGQGTLVTVSS
VL: DVVMTQSPLSLPVTLGQPASISCRSSQSLVYSDGNTYLNWFQQRPGQSPRRLIYQVSNRDSGVPDRFSGSGSGTDFTLKIGRVEAEDVGVYFCMQGTHWPWTFGQGTKVEIKR
notes: Human IgG
B2: M22 (antibody, human IgG1, kappa, V domains shown)
VH: EVQLVESGGGLVQPGGSLRLSCAASGFTVSSNYMSWVRQAPGKGLEWVSVIYSGGTTYYADSVKGRFTISRHNSKNTLYLQMNSLRAEDTAVYYCARDHDPDYGGYYMDVWGKGTTVTVSS
VL: B1 VL
notes: Human IgG
B3: M21 (antibody, human IgG1, kappa, V domains shown)
VH: EVQLVESGGGLVQPGGSLRLSCAASGFTVSSNYMSWVRQAPGKGLEWVSVIYSGGSTYYADSVKGRFTISRDNSKNTLYLQMNSLRAEDTAVYYCARDQEHYFDGSGYYVDYWGQGTLVTVSS
VL: B1 VL
notes: Human IgG
B4: M3 (antibody, human IgG1, lambda, V domains shown)
VH: QLQLQESGPGLVKPSETLSLTCTVSGGSISSSSYYWGWIRQPPGKGLEWIGSIYYSGSTHYNPSLKSRVTISVDTSKNQFSLKLRSVTAADTAVYYCARGVVEVRGNHYYYYYMDVWGKGTTVTVSS
VL: QSVLTQPPSVSGAPGQRVTISCTGSSSNIGAGYDVHWYQQLPGTAPKLLIYGNSYRPSGVPDRFSGSKSGTSASLAITGLQAEDEADYYCQSYDSSLSGSGVFGGGTKLTVLG
notes: Human IgG
B5: M16 (antibody, human IgG1, kappa, V domains shown)
VH: QVQLVESGGGLVKPGGSLRLSCAASGFTFSDYYMSWIRQAPGKGLEWVSYISSSGTTKYYADSVKGRFTISRDNAKNSLYLQMNSLRAEDTAVYYCVRENLGYCSGGSCFYYYYMDVWGKGTTVTVSS
VL: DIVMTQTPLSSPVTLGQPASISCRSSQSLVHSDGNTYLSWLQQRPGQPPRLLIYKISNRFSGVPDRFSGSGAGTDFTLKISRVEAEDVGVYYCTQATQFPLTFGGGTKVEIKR
notes: Human IgG
B6: M14 (antibody, human IgG1, kappa, V domains shown)
VH: B5 VH
VL: not shown
B7: M18 (antibody, human IgG1, kappa, V domains shown)
VH: B5 VH with T28I, N100D, L101I
VL: not shown
notes: Human IgG
B8: M8 (antibody, human IgG1, kappa, V domains shown)
VH: B5 VH with T56S, K58I, V97A, N100R, L101I, F110Y
VL: not shown
B9: M23 (antibody, human IgG1, kappa, V domains shown)
VH: B5 VH with L101I, S105T, S108N
VL: not shown
B10: M1 (antibody, human IgG1, kappa, V domains shown)
VH: QLQLQESGPGLVKPSETLSLTCTVSGGSISSSRYYWGWIRQPPGKGLEWIGSIYYSGSTYYNPSLKSRVTISVDTSNNQFSLKLTSVTAADTAVYYCARLPESGGYSGWFDPWGQGTLVTVSS
VL: not shown
notes: Human IgG
B11: M2 (antibody, human IgG1, kappa, V domains shown)
VH: B10 VH
VL: not shown
notes: Human IgG
B12: M19 (antibody, human IgG1, kappa, V domains shown)
VH: B5 VH with T28I, N100D, L101I
VL: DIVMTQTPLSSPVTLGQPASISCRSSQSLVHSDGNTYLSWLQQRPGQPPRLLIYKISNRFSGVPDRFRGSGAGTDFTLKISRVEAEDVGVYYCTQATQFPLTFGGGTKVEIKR
notes: Human IgG
B13: M17 (antibody, human IgG1, kappa, V domains shown)
VH: B5 VH with T28I, N100D, L101I
VL: not shown
B14: M6 (antibody, human IgG1, kappa, V domains shown)
VH: EVQLVESGGGLVQPGGSLRLSCAASGFTVSSNYMSWVRQAPGKGLEWVSVIYSGGSTYYADSVKGRFTISRDNSKNTLYLQMNSLRAEDTAVYYCARGSTNTYYYDSSGHPWGQGTMVTVSS
VL: not shown
notes: Human IgG
B15: M5 (antibody, human IgG1, kappa, V domains shown)
VH: B14 VH
VL: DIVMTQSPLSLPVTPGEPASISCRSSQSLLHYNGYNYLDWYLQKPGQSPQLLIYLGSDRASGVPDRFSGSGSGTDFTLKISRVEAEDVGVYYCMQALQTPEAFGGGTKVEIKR
notes: Human IgG
B16: M4 (antibody, human IgG1, lambda, V domains shown)
VH: B4 VH with S67R, V73E, R85S, Y113H, V116A
VL: B4 VL with R17G, T44S, L48F, L49F, N53S, S54N, Y55N
notes: Human IgG
B17: M13 (antibody, human IgG1, kappa, V domains shown)
VH: B5 VH with L101I, S105T, S108N
VL: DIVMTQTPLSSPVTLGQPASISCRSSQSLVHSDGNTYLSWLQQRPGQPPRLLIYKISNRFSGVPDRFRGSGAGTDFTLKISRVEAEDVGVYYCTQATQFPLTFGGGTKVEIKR
notes: Human IgG
B18: M15 (antibody, human IgG1, kappa, V domains shown)
VH: B5 VH
VL: not shown
notes: Human IgG
B19: M10 (antibody, human IgG1, kappa, V domains shown)
VH: B5 VH with F110Y
VL: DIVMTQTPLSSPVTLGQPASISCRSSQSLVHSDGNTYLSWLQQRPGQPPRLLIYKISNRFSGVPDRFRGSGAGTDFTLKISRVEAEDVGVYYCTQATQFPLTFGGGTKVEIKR
notes: Human IgG
B20: M9 (antibody, human IgG1, kappa, V domains shown)
VH: B5 VH with F110Y
VL: not shown
notes: Human IgG
B21: M12 (antibody, human IgG1, kappa, V domains shown)
VH: B5 VH with L101I, S105T, S108N
VL: not shown
notes: Human IgG
B22: M11 (antibody, human IgG1, kappa, V domains shown)
VH: B5 VH with S105T, S108N
VL: not shown

Target: T1, Synthetic peptide HGVTSAPDTRPAPGSTAPP
Assay: ELISA on coated peptide, antibody 0.01 mg/ml, mean of 3
Description: (§1) Selected antibodies from Table 1 were further characterized for binding to synthetic MUC1 glycopeptides that were synthesized with the GalNac or GaNac-Gal carbohydrates on various serines and threonines along the MUC1 tandem repeat. If placed within the specific epitope recognized by an antibody, the antibody would not bind that particular glycopeptide.

Row | Binder | ELISA absorbance at 450 nm [absorbance]
1 | B1 | 1.9
2 | B2 | 2.1
3 | B3 | 2.1
4 | B4 | 0.1
5 | B5 | 2.2
6 | B6 | 2.1
7 | B7 | 2.4
8 | B8 | 2.1
9 | B9 | 2
10 | B10 | 0.1
11 | B11 | 0.1

Target: T2, Synthetic peptide …
Assay: as above
Description: as §1

Row | Binder | ELISA absorbance at 450 nm [absorbance]
12 | B1 | 2.8
13 | B2 | 3.1
14 | B3 | 3
15 | B4 | 3.1
16 | B5 | 3.3
17 | B6 | 2.9
18 | B7 | 3.3
19 | B8 | 3
20 | B9 | 2.9
21 | B10 | 3.2
22 | B11 | 3.4

What follows are binders tested against T9, 100 aa-long synthetic MUC1 peptide (…)5 (assay: ELISA on coated 100-mer peptide).
T9 construct: also called 100-mer; vaccine 100-mer peptide
Description: (§2) Heavy and light chains of antibodies reactive against MUC1 were generated from plasma of individuals vaccinated with a 100 aa-long synthetic MUC1 peptide (100-mer) representing the unglycosylated tumor associated MUC1 antigen (Kimura et al., 2013, Cancer Prev. Res. (Phila.), 6:18-26). Binding of monoclonal antibodies produced by combinatorial pairing of chains was characterized by ELISA using the vaccine 100-mer peptide consisting of the following sequence ([…])₅ (SEQ ID NO: 2). Briefly, 96-well high-binding ELISA plates were coated with 50 μl of the peptide diluted in carbonate buffer at 2 μg/ml. The wells were washed then blocked with 5% fat-free milk in phosphate-buffered saline (PBS). Antibodies were diluted in 5% milk in PBS with 0.1% TWEEN 20 (PBS-T) and then added to the peptide-coated, blocked wells and incubated at 37° C. for 2 hours, after which the wells were washed. Binding of antibody was probed with an anti-human IgG goat antibody conjugated to horseradish peroxidase (HRP), and signal was detected with 3,3′,5,5′-tetramethylbenzidine (TMB) substrate, which was neutralized with an acid, then the 450 nm absorbance was read. […] Additionally, the EC₅₀ of each antibody was approximated by ELISA titration (Table 1).

Row | Binder | binding result
23 | B7 | binds
24 | B12 | binds
25 | B9 | binds
26 | B13 | binds

What follows are binders tested against T9, 100 aa-long synthetic MUC1 peptide (…)5 (assay: ELISA titration on coated 100-mer peptide, EC50 approximated).
Description: as §2

Row | Binder | EC50 [ng/mL]
27 | B14 | 12
28 | B15 | 100
29 | B1 | 4
30 | B2 | 7
31 | B3 | 11
32 | B4 | 11
33 | B16 | 4
34 | B5 | 11
35 | B6 | 2
36 | B17 | 2
37 | B8 | 4
38 | B18 | 5
39 | B19 | 4
40 | B20 | 4
41 | B21 | 2
42 | B22 | 10
43 | B10 | 11
44 | B11 | 7

Target: T3, SEQ ID NO: 346 glycopeptide with …
Assay: ELISA on coated glycopeptide, antibody 0.01 mg/ml, mean of 3
Description: as §1

Row | Binder | ELISA absorbance at 450 nm [absorbance]
45 | B1 | 2
46 | B2 | 2.2
47 | B3 | 2.1
48 | B4 | 0.1
49 | B6 | 1.6
50 | B7 | 1.5
51 | B8 | 1.6
52 | B9 | 1.7
53 | B10 | 0.1
54 | B11 | 0.1

Target: T4, SEQ ID NO: 346 glycopeptide with …
Assay: as above
Description: as §1

Row | Binder | ELISA absorbance at 450 nm [absorbance]
55 | B1 | 1.9
56 | B2 | 2.3
57 | B3 | 2.2
58 | B4 | 0.1
59 | B10 | 0.1
60 | B11 | 0.1

Target: T5, SEQ ID NO: 346 glycopeptide with …
Assay: as above
Description: as §1

Row | Binder | ELISA absorbance at 450 nm [absorbance]
61 | B1 | 1.9
62 | B2 | 2.3
63 | B3 | 2.1
64 | B4 | 0.1
65 | B10 | 0.1
66 | B11 | 0.1

Target: T6, SEQ ID NO: 346 glycopeptide with …
Assay: as above
Description: as §1

Row | Binder | ELISA absorbance at 450 nm [absorbance]
67 | B4 | 0.1
68 | B10 | 0.1
69 | B11 | 0.1

Target: T7, SEQ ID NO: 346 glycopeptide with …
Assay: as above
Description: as §1

Row | Binder | ELISA absorbance at 450 nm [absorbance]
70 | B4 | 0.1
71 | B5 | 2.2
72 | B6 | 2.4
73 | B7 | 2.5
74 | B8 | 2.5
75 | B9 | 2.5
76 | B10 | 0.1
77 | B11 | 0.1

Target: T8, SEQ ID NO: 346 glycopeptide with …
Assay: as above
Description: as §1

Row | Binder | ELISA absorbance at 450 nm [absorbance]
78 | B1 | 2.1
79 | B2 | 2.2
80 | B3 | 2.1
81 | B4 | 0.1
82 | B5 | 1.3
83 | B6 | 2.1
84 | B7 | 2.7
85 | B8 | 2.1
86 | B9 | 2.4
87 | B10 | 0.1
88 | B11 | 0.1
